# Measured values taken from US20020155571A1, “Triazine degrading enzymes” (priority 2000, published 2002).
# Experiment: High throughput mass spectrometry screen of triazine hydrolase library against about 15 triazine derivatives
# Type: biochemical
# [1] = substrate(s) on which the triazine hydrolase library member shows activity, column indicates preferred embodiments and is not exclusive
Molecule,Substrate Activity [1],also measured
383 (protein) MQTLSIQHGTLVTMDQYRRVLGDSWVHVQDGRIVALGVHAESVPPPADRVIDARGKVVLPGFINAHTHVNQILLRGGPSHGRQLYDWLFNVLYPGQKAMRPEVAVAVRLYCAEAVRSGITTINEEADSAIYPGNIEAAMAVYGEVGVRVVYARMFFDRMDGRIQGYVDALKARSPQVELCSIMEETAVAKDRITALSDQYHGTAGGRISVWPAPATTTTVTVEGMRWAQAFARDRAVMWTLHMAESDHDERILGWSPAEYMECYGLLDERLQVAHCVYFDRKDVRLLHRHNVKVASQVVSNAYLGSGVAPVPEMVERGMAVGIGTDNNNSCDSVNMIGDMKFMAHIHRAVHRDADVLTPEKILEMATIDGARSLGMDHEIGSIETGKRADLILLDLRHPQTTPHHHLAATIVFQAYGNEVDTVLIDGNVVMENRRLSFLPPERELAFLEEAQSRATAILQRANMVANPAWRSL,–,"Substrate Activity: ametryn (substrate ametryn, preferred substrates, not exclusive): ametryn"
482 (protein) MQTLSIQHGTLVTMDQYRRVLGDSWVHVQDGRIVALGVHAESVPPPADRVIDARGKVVLPGFINAHTHVNQILLRGGPSHGRQLYDWLFNVVYPGQKAMRPEVAVAVRLYCAEAVRSGITTINEEADSAIYPGNIEAAMAVYGEVGVRVVYARMFFDRMDGRIQGYVDALKARSPQVELCSIMEETAVAKDRITALSDQYHGTAGGRISVWPAPATTTPVTVEGMRWAQAFARDRAVMWTLHMAESDHDERIIGGSPAEYMECYGLLDERLQVAHCVYFDRKDVRLLHRHNVKVASQVVSNAYLGSGVAPVPEMVERGMAVGIGTDNDNSSDSVNMIGDMKFMAHIHRAVHRDADVLTPEKILEMATIDGARSLGMDHEIGSIETGKRADLILLDLRHPQTTPHHHLAATIVFQAYGNEVDTVLIDGNVVMENRRLSFLPPERELAFLEEAQSRATAILQRANMVANPAWRSL,prometryn,–
508 (protein) MQTLSIQHGTLVTMDQYRRVLGDSWVHVQDGRIVALGVHAESVPPPADRVIDARGKVVLPGFINAHTHVNQILLRGGPSHGRQLYDWLFNVVYPGQKAMRPEVAVAVRLYCAEAVRSGITTINEEADSAIYPGNIEAAMAVYGEVGVRVVYARMFFDRMDGRIQGYVDALKARSPQVELCSIMEETAVAKDRITALSDQYHGTAGGRISVWPAPATTTTVTVEGMRWAQAFARDRAVMWTLHMAESDHDERILGGSPAEYMECYGLLDERLQVAHCVYFDRKDVRLLHRHNVKVASQVVSNAYLGSGVAPVPEMVERGMAVGIGTDNNNSSDSVNMIGDMKFMAHIHRAVHRDADVLTPEKILEMATIDGARSLGMDHEIGSIETGKRADLILLDLRHPQTTPHHHLAATIVFQAYGNEVDTVLIDGNVVMENRRLSFLPPERELAFLEEAQSRATAILQRANMVANPAWRSL,propazine,–
466 (protein) MQTLSIQHGTLVTMDQYRRVLGDSWVHVQDGRIVALGVHAESVPPPADRVIDARGKVVLPGFINAHTHVNQILLRGGPSHGRQLYDWLFNVVYPGQKAMRPEVAVAVRLYCAEAVRSGITTINEEADSAIYPGNIEAAMAVYGEVGVRVVYARMFFDRMDGRIQGYVDALKARSPQVELCSIMEETAVAKDRITALSDQYHGTAGGRISVWPAPATITTVTVEGMRWAQAFARDRAVMWTLHMAESDHDERIIGGSPAEYMECYGLLDERLQVAHCVYFDRKDVRLLHRHNVKVASQVVSNAYLGSGVAPVPEMVERGMAVGIGTDNDNSSDSVNMIGDMKFMAHIHRAVHRDADVLTPEKILEMATIDGARSLGMDHEIGSIETGKRADLILLDLRHPQTTPHHHLAATIVFQAYGNEVDTVLIDGNVVMENRRLSFLPPERELAFLEEAQSRATAILQRANMVANPAWRSL,prometryn,–
49 (protein) MQTLSIQHGTLVTMDQYRRVLGDSWVHVQDGRIVALGVHAESVPPPADRVIDARGKVVLPGFINAHTHVNQILLRGGPSHGRQFYDWLFNVLYPGQKAMRPEVAVAVRLYCAEAVRSGITTINEDADSAIYPGNIEAAMAVYGEVGVRVVYARMFFDRMDGRIQGYVDALKARSPQVELCSIMEETAVAKDRITALSDQYHGTAGGRISVWPAPATTTTVTVEGMRWAQAFARDRAVMWTLHMAESDHDERIIGGSPAEYMECYGLLDERLQVAHCVYFDRKDVRLLHRHNVKVASQVVSNAYLGSGVAPVPEMVERGMAVGIGTDNDNSCDSVNMIGDMKFMAHIHRAVHRDADVLTPEKILEMATIDGARSLGMDHEIGSIETGKRADLILLDLRHPQTTPHHHLAATIVFQAYGNEVDTVLIDGNVVMENRRLSFLPPERELAFLEEAQSRATAILQRANMVANPAWRSL,–,"Substrate Activity (Table 5, the value is the triazine substrate the library member (atzA-based variant) is active on, preferred members, not exclusive): atratone"
504 (protein) MQTLSIQHGTLVTMDQYRRVLGDSWVHVQDGRIVALGVHAESVPPPADRVIDARGKVVLPGFINAHTHVNQILLRGGPSHGRQLYDWLFNVVYPGQKAMRPEVAVAVRLYCAEAVRSGITTINEEADSAIYPGNIEAAMAVYGEVGVRVVYARMFFDRMDGRIQGYVDALKARSPQVELCSIMEETAVAKDRITALSDQYHGTAGGRISVWPAPATTTTVTVEGMRWAQAFARDRAVMWTLHMAESDHDERIIGWSPAEYMECYGLLDERLQVAHCVYFDRKDVRLLHRHNVKVASQVVSNAYLGSGVAPVPEMVERGMAVGIGTDNNNSSDSVNMIGDMKFMAHIHRAVHRDADVLTPEKILEMATIDGARSLGMDHEIGSIETGKRADLILLDLRHPQTTPHHHLAATIVFQAYGNEVDTVLIDGNVVMENRRLSFLPPERELAFLEEAQSRATAILQRANMVANPAWRSL,propazine,–
502 (protein) MQTLSIQHGTLVTMDQYRRVLGDSWVHVQDGRIVALGVHAESVPPPADRVIDARGKVVLPGFINAHTHVNQILLRGGPSHGRQLYDWLFNVVYPGQKAMRPEVAVAVRLYCAEAVRSGITTINEEADSAIYPGNIEAAMAVYGEVGVRVVYARMFFDRMDGRIQGYVDALKARSPQVELCSIMEETAVAKDRITALSDQYHGTAGGRISVWPAPATTTTVTVEGMRWAQAFARDRAVMWTLHMAESDHDERIIGWSPAEYMECYGLLDERLQVAHCVYFDRKDVRLLHRHNVKVASQVVSNAYLGSGVAPVPEMVERGMAVGIGTDNDNSSDSVNMIGDMKFMAHIHRAVHRDADVLTPEKILEMATIDGARSLGMDHEIGSIETGKRADLILLDLRHPQTTPHHHLAATIVFQAYGNEVDTVLIDGNVVMENRRLSFLPPERELAFLEEAQSRATAILQRANMVANPAWRSL,prometryn,–
498 (protein) MQTLSIQHGTLVTMDQYRRVLGDSWVHVQDGRIVALGVHAESVPPPADRVIDARGKVVLPGFINAHTHVNQILLRGGPSHGRQLYDWLFNVVYPGQKAMRPEVAVAVRLYCAEAVRSGITTINEEADSAIYPGNIEAAMAVYGEVGVRVVYARMFFDRMDGRIQGYVDALKARSPQVELCSIMEETAVAKDRITALSDQYHGTAGGRISVWPAPATTTTVTVEGMRWAQAFARDRAVMWTLHMAESDHDERIIGGSPAEYMECYGLLDERLQVAHCVYFDRKDVRLLHRHNVKVASQVVSNAYLGSGVAPVPEMVERGMAVGIGTDNDNSSDSVNMIGDMKFMAHIHRAVHRDADVLTPEKILEMATIDGARSLGMDHEIGSIETGKRADLILLDLRHPQTTPHHHLAATIVFQAYGNEVDTVLIDGNVVMENRRLSFLPPERELAFLEEAQSRATAILQRANMVANPAWRSL,prometryn,–
